Measurements published in publication PMC7233526 (Biochemistry, 2020).
Substitutions are numbered along the chain they refer to. Names may count otherwise.

T1: full-length rat Adrenodoxin (Adx), wild type (rat, UniProt P24483 65-188)
T1 sequence (looked up): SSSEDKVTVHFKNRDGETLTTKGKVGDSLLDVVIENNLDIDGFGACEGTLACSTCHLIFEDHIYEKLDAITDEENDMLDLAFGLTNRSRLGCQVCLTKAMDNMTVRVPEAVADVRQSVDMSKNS

B1: rat Adrenodoxin L80Q (natural protein, UniProt P24483 65-188, looked up)
chain: T1 sequence (looked up) with L80Q
B2: rat CYP24A1 (cytochrome P450 24A1), S57D, without the 32 residue leader sequence (enzyme, UniProt Q09128 33-514, looked up)
chain: SASRAPKEVPLCPLMTDGETRNVTDLPGPTNWPLLGSLLEIFWKGGLKKQHDTLAEYHKKYGQIFRMKLGSFDSVHLGSPSLLEALYRTESAHPQRLEIKPWKAYRDHRNEAYGLMILEGQEWQRVRSAFQKKLMKPVEIMKLDKKINEVLADFLERMDELCDERGRIPDLYSELNKWSFESICLVLYEKRFGLLQKETEEEALTFITAIKTMMSTFGKMMVTPVELHKRLNTKVWQAHTLAWDTIFKSVKPCIDNRLQRYSQQPGADFLCDIYQQDHLSKKELYAAVTELQLAAVETTANSLMWILYNLSRNPQAQRRLLQEVQSVLPDNQTPRAEDLRNMPYLKACLKESMRLTPSVPFTTRTLDKPTVLGEYALPKGTVLTLNTQVLGSSEDNFEDSHKFRPERWLQKEKKINPFAHLPFGIGKRMCIGRRLAELQLHLALCWIIQKYDIVATDNEPVEMLHLGILVPSRELPIAFRPR

What was measured:
[1] = molecular target: B2; assay: NMR titration
[2] = molecular target: T1, full-length rat Adrenodoxin (Adx), wild …; assay: cross-linking

Row | binding result [1] | stoichiometry N [2] | Binder
1 | binds |  | B1
2 |  | 1 | B2
